Assay results reported in patent US20150025016A1 (COMMISSARIAT A L ENERGIE ATOMIQUE ET AUX ENERGIES …, published 2015).

B1: peptide i1 (fragment of histone H3, α3 helix) (peptide)
peptide: GAMGTIMPKDIQLARRIRG
notes: The N-terminal GAMG comes from the cloning vector

The binders below were run against T1, Asf1 (1-156), conserved N-terminal domain of human Asf1 (human, UniProt Q9Y294 1-156) (assay: ITC (microcalorimetry)).
T1 construct: range 1-156; The ITC legend says Asf1 1-156; Recombinant, cloned in peTM30; also called Asf1a 1-156
Description: (§1) All calorimetry experiments were carried out in 50 mM Tris buffer pH 7.4 at 5° C., unless otherwise indicated. Peptides were introduced in the syringe at a concentration of […], and Asf1 was added to the cuvette at a concentration of 30 μM or 10 μM. Calorimety tests were also conducted at 25° C. or in 50 mM Tris buffer 150 mM NaCl pH 7.4 to obtain more detailed information on the characteristics of the interactions studied.

T1 sequence (Q9Y294 1-156 limits assumed): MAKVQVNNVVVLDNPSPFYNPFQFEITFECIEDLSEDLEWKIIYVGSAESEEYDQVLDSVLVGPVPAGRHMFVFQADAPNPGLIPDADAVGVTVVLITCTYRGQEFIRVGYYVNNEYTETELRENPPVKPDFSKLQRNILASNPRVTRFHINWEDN

Point of comparison: GAMGTITPKEAQLARRIRGAGASRTLNGFG [inhibitor peptide Asf1/H3-H4 of SEQ ID No 41], Kd 800 nM. Against it:
- B1 — 11-fold higher, 8700 nM
- GAMGLTAAEHAKRSTLTPKEAQLARRIRGAGGVTLNGFG [inhibitor peptide Asf1/H3-H4 of SEQ ID No 52] — 27-fold lower, 30 nM
- GAMGTLTPKEAELARRIRGAGASGRTLNGFG [inhibitor peptide Asf1/H3-H4 of SEQ ID No 74] — 2.4-fold higher, 1890 nM
- ASTERKWAELARRIAGAGGVTLNGFG [Peptide i5_Aloop] — 30-fold lower, 27 nM
- ASTEEKWARLARRIRGAGGVTLNGFG [Peptide i5_s3] — 40-fold lower, 20 nM
- ASTERKWAELARRIRGAGGATLNGFG [Peptide i5_loopA] — 13-fold lower, 63 nM
- ASTRRKWAELARRIRGAGGVTLNGFG [peptide of SEQ ID No 33] — 1.7-fold higher, 1330 nM
- ASTERKWAELARRIRGAGGRTLNGFG [Peptide i5_loopR] — 28-fold lower, 29 nM
- ASTERKWAELARRIRGAGGVTLDGFG [Peptide i5_D] — 89-fold lower, 9 nM
- GAMGTIMPKDIQLARRIRGAGASRTLYGFG [inhibitor peptide Asf1/H3-H4 of SEQ ID No 39] — 2.3-fold lower, 350 nM
- LTAAEHAKRSTLTPKEAQLARRIEGAGASVTLNGFG [inhibitor peptide Asf1/H3-H4 of SEQ ID No 54] — 6.7-fold lower, 120 nM
- LTAAEHAKRSTLTPKEAELARRIEGAGASVTLNGFG [inhibitor peptide Asf1/H3-H4 of SEQ ID No 55] — within 1.5-fold, 880 nM
- GAMGTIMPKDIQLARRIRGAGGRTLYGFG [inhibitor peptide Asf1/H3-H4, peptide i4_1] — within 1.5-fold, 560 nM
- RRPRRPRRPRRPRRPGAMGTITPKEAQLARRIRGAGGVTLNGFG [inhibitor peptide Asf1/H3-H4, peptide RRP5-i42V] — within 1.5-fold, 590 nM
- RRPRRPRRPRRPRRPASTERKWAELARRIRGAGGVTLNGFGGCA [inhibitor peptide Asf1/H3-H4, peptide RRP5-i5] — within 1.5-fold, 670 nM
- GAMGTLTPKEAELARRIRGAGRTLNGFG [inhibitor peptide Asf1/H3-H4 of SEQ ID No 49] — within 1.5-fold, 950 nM
- GAMGTLTPKEAELARRIRGAGGVTLNGFGASTG [inhibitor peptide Asf1/H3-H4 of SEQ ID No 62] — 2.5-fold lower, 320 nM
- GAMGRVPPAVRKLGNASTERKWAELARRIRGAGGVTLNGFG [inhibitor peptide Asf1/H3-H4 of SEQ ID No 65] — 13-fold lower, 60 nM
- GAMGTLTPKEAELARRIRGAGGVTLNGANFVSTG [inhibitor peptide Asf1/H3-H4 of SEQ ID No 63] — 2.1-fold higher, 1680 nM
- RRPRRPRRPRRPRRPGAMGTITPKEAQLARRIRGAGGVTLNGFGCA [inhibitor peptide Asf1/H3-H4, peptide RRP5-i42V-CA] — 1.9-fold lower, 420 nM
- RRPRRPRRPRRPRRPGAMGTIMPKDIQLARRIRGGCA [inhibitor peptide Asf1/H3-H4, peptide RRP5-i1] — 1.7-fold lower, 460 nM
- GAMGTLTPKEAELARRIRG [Stabilized H3 fragment of SEQ ID No 72] — 2.8-fold higher, 2230 nM
- GAMGTLTPKEAELARRIRGAGGRTLNGFG [inhibitor peptide Asf1/H3-H4, peptide i4] — 4.4-fold lower, 180 nM
- GAMGTLTPKEAELARRIRGAGGVTYDGFG [inhibitor peptide Asf1/H3-H4 of SEQ ID No 61] — 8-fold lower, 100 nM
- GAMGTITPKEAQLARRIRGAGGRTLNGFG [inhibitor peptide Asf1/H3-H4, peptide i4_2] — 3.6-fold lower, 220 nM
- GAMGTLTPKEAELARRIRGAGGVTLNGFG [inhibitor peptide Asf1/H3-H4, peptide i4V] — 13-fold lower, 60 nM
- GAMGTITPKEAQLARRIRGAGGVTLNGFG [inhibitor peptide Asf1/H3-H4, peptide i42V] — 2.3-fold lower, 350 nM
- GAMGTRTPKERRLARRIRGAGGRTLNGFG [inhibitor peptide Asf1/H3-H4 of SEQ ID No 56] — 27-fold lower, 30 nM
- GAMGTRTPKEARLARRIRGAGGRTLNGFG [inhibitor peptide Asf1/H3-H4 of SEQ ID No 57] — 3.1-fold lower, 260 nM
- GAMGRVPPAVRKLGNSTERKWAELARRIRGAGGVTLNGFG [inhibitor peptide Asf1/H3-H4 of SEQ ID No 64] — 10-fold lower, 80 nM
- GAMGTITPKEAQLARRIEGAGASVTLNGFG [inhibitor peptide Asf1/H3-H4 of SEQ ID No 44] — within 1.5-fold, 660 nM
- GAMGTLTPKEAELARRIRGAGASRTLNGFG [inhibitor peptide Asf1/H3-H4 of SEQ ID No 43] — 2.3-fold lower, 350 nM
- GAMGTITPKEEQLRRRIEGAGASVTLNGFG [inhibitor peptide Asf1/H3-H4 of SEQ ID No 46] — 1.9-fold lower, 420 nM
- GAMGTLTPKEAELARRIEGAGASVTLNGFG [inhibitor peptide Asf1/H3-H4 of SEQ ID No 45] — 2.5-fold higher, 2000 nM
- LTAAEHAKRSTLTPKEAELARRIRGAGGVTLNGFG [inhibitor peptide Asf1/H3-H4 of SEQ ID No 53] — 13-fold lower, 60 nM
- GAMGTLTPKEAELARRIRGARTLNGFG [inhibitor peptide Asf1/H3-H4 of SEQ ID No 73] — 4.9-fold higher, 3890 nM
- GRKKRRQRRRGAMGTITPKEAQLARRIRGAGGVTLNGFG [inhibitor peptide Asf1/H3-H4, peptide TAT-i42V] — within 1.5-fold, 620 nM
- GAMGTITPKEAQLARRIRG [Stabilized H3 fragment of SEQ ID No 71] — 1.8-fold higher, 1400 nM

These binders were tested against T2, human protein GST-Asf1 1-156 (human, UniProt Q9Y294 1-156) (assay: competition on GST column: GST-Asf1 1-156 beads loaded with histones H3-H4, elution with 0, 5, 10, 50 and 100 µM peptide; released histone H3 shown by Western blot (anti-H3, anti-GST)).
T2 construct: range 1-156; also called GST-Asf1a; GST beads linked to Asf1; not shown: GST tag
Description: The human protein GST-Asf1 1-156 was produced and then incubated with GST beads (glutathione S transferase, Sigma). […] After washing with 50 mM Tris buffer pH8, 150 mM NaCl, 1 mM EDTA, 1 mM DTT, 0.5% NP40, the beads were incubated with different concentrations of peptide (0 to 1 mM) dissolved in the same buffer.

T2 sequence (Q9Y294 1-156 limits assumed): as the sequence (Q9Y294 1-156 limits assumed) above

ASTERKWAEAARRARGAGGVTLNGAG [Peptide i5mut (control peptide)]: no binding (tested: 100 µM).

The binders below were run against T1, Asf1 (1-156), conserved N-terminal … (assay: ITC (microcalorimetry); second printing of SEQ ID No 42 in a later block of the 6th table).
Description: as §1

With GAMGTLTPKEAELARRIRGAGGRTLNGFG [inhibitor peptide Asf1/H3-H4, peptide i4] the Kd was 180 nM.
